Data published in the supplement of paper PMC10567573.

B1: C22orf15 (parent)
chain: PRGRAHLLPNPYQQDFLGLPEELR

Variants of: B1
Assay: protein stability index of a GFP-peptide fusion (GPS, HEK-293T) (PSI 1-6); higher = more stable
Conditions: c terminus: a fixed tail appended
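Further: lentivirally expressed fusions sorted by FACS into six bins by GFP to DsRed ratio, PSI derived from sequencing read proportions per bin multiplied by bin number.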

Variant	protein stability index
PRWRAHLLPNPYQQDFLGLPEELR [G3W]	3.27
PRSRAHLLPNPYQQDFLGLPEELR [G3S]	3.52
PRCRAHLLPNPYQQDFLGLPEELR [G3C]	3.15
PRQRAHLLPNPYQQDFLGLPEELR [G3Q]	3.45
PRLRAHLLPNPYQQDFLGLPEELR [G3L]	3.51
PRERAHLLPNPYQQDFLGLPEELR [G3E]	3.82
PRVRAHLLPNPYQQDFLGLPEELR [G3V]	3.93
PRYRAHLLPNPYQQDFLGLPEELR [G3Y]	3.72
PRKRAHLLPNPYQQDFLGLPEELR [G3K]	3.16
PRMRAHLLPNPYQQDFLGLPEELR [G3M]	2.7
PRPRAHLLPNPYQQDFLGLPEELR [G3P]	3.77
PRTRAHLLPNPYQQDFLGLPEELR [G3T]	2.66
PRHRAHLLPNPYQQDFLGLPEELR [G3H]	3.79
PRDRAHLLPNPYQQDFLGLPEELR [G3D]	4.03
PRARAHLLPNPYQQDFLGLPEELR [G3A]	4.32
PRNRAHLLPNPYQQDFLGLPEELR [G3N]	3.61
PRIRAHLLPNPYQQDFLGLPEELR [G3I]	3.83
PRRRAHLLPNPYQQDFLGLPEELR [G3R]	3.52
PRFRAHLLPNPYQQDFLGLPEELR [G3F]	3.79
PRGPAHLLPNPYQQDFLGLPEELR [R4P]	3.92
PRGTAHLLPNPYQQDFLGLPEELR [R4T]	3.68
PRGHAHLLPNPYQQDFLGLPEELR [R4H]	4.06
PRGVAHLLPNPYQQDFLGLPEELR [R4V]	3.86
PRGSAHLLPNPYQQDFLGLPEELR [R4S]	3.81

Variant	protein stability index
PRGAAHLLPNPYQQDFLGLPEELR [R4A]	4.23
PRGLAHLLPNPYQQDFLGLPEELR [R4L]	3.59
PRGYAHLLPNPYQQDFLGLPEELR [R4Y]	3.57
PRGEAHLLPNPYQQDFLGLPEELR [R4E]	3.96
PRGGAHLLPNPYQQDFLGLPEELR [R4G]	4.27
PRGCAHLLPNPYQQDFLGLPEELR [R4C]	2.85
PRGNAHLLPNPYQQDFLGLPEELR [R4N]	3.99
PRGFAHLLPNPYQQDFLGLPEELR [R4F]	3.77
PRGQAHLLPNPYQQDFLGLPEELR [R4Q]	3.73
PRGKAHLLPNPYQQDFLGLPEELR [R4K]	3.36
PRGWAHLLPNPYQQDFLGLPEELR [R4W]	2.96
PRGMAHLLPNPYQQDFLGLPEELR [R4M]	3.42
PRGIAHLLPNPYQQDFLGLPEELR [R4I]	3.24
PRGDAHLLPNPYQQDFLGLPEELR [R4D]	4.25
PRGRANLLPNPYQQDFLGLPEELR [H6N]	4.26
PRGRATLLPNPYQQDFLGLPEELR [H6T]	3.87
PRGRAPLLPNPYQQDFLGLPEELR [H6P]	3.93
PRGRARLLPNPYQQDFLGLPEELR [H6R]	3.71
PRGRAALLPNPYQQDFLGLPEELR [H6A]	3.57
PRGRACLLPNPYQQDFLGLPEELR [H6C]	3.68
PRGRAKLLPNPYQQDFLGLPEELR [H6K]	3.87
PRGRAQLLPNPYQQDFLGLPEELR [H6Q]	3.75
PRGRAYLLPNPYQQDFLGLPEELR [H6Y]	3.02
PRGRAGLLPNPYQQDFLGLPEELR [H6G]	4.26

Variant	protein stability index
PRGRADLLPNPYQQDFLGLPEELR [H6D]	4.4
PRGRASLLPNPYQQDFLGLPEELR [H6S]	3.81
PRGRAMLLPNPYQQDFLGLPEELR [H6M]	4.04
PRGRAILLPNPYQQDFLGLPEELR [H6I]	3.65
PRGRAFLLPNPYQQDFLGLPEELR [H6F]	2.99
PRGRAVLLPNPYQQDFLGLPEELR [H6V]	3.54
PRGRAWLLPNPYQQDFLGLPEELR [H6W]	2.85
PRGRALLLPNPYQQDFLGLPEELR [H6L]	3.44
PRGRAELLPNPYQQDFLGLPEELR [H6E]	4.58
PRGRAHLLPEPYQQDFLGLPEELR [N10E]	3.61
PRGRAHLLPFPYQQDFLGLPEELR [N10F]	3.35
PRGRAHLLPMPYQQDFLGLPEELR [N10M]	3.54
PRGRAHLLPYPYQQDFLGLPEELR [N10Y]	3.46
PRGRAHLLPVPYQQDFLGLPEELR [N10V]	4.14
PRGRAHLLPHPYQQDFLGLPEELR [N10H]	4.06
PRGRAHLLPLPYQQDFLGLPEELR [N10L]	3.69
PRGRAHLLPAPYQQDFLGLPEELR [N10A]	3.95
PRGRAHLLPDPYQQDFLGLPEELR [N10D]	4.16
PRGRAHLLPIPYQQDFLGLPEELR [N10I]	3.97
PRGRAHLLPCPYQQDFLGLPEELR [N10C]	3.58
PRGRAHLLPWPYQQDFLGLPEELR [N10W]	2.88
PRGRAHLLPPPYQQDFLGLPEELR [N10P]	4.07
PRGRAHLLPTPYQQDFLGLPEELR [N10T]	4.05
PRGRAHLLPSPYQQDFLGLPEELR [N10S]	4.29

Variant	protein stability index
PRGRAHLLPRPYQQDFLGLPEELR [N10R]	3.53
PRGRAHLLPQPYQQDFLGLPEELR [N10Q]	4.12
PRGRAHLLPKPYQQDFLGLPEELR [N10K]	3.77
PRGRAHLLPGPYQQDFLGLPEELR [N10G]	4
PRGRAHLYPNPYQQDFLGLPEELR [L8Y]	3.25
PRGRAHLRPNPYQQDFLGLPEELR [L8R]	3.56
PRGRAHLPPNPYQQDFLGLPEELR [L8P]	4
PRGRAHLFPNPYQQDFLGLPEELR [L8F]	3.49
PRGRAHLTPNPYQQDFLGLPEELR [L8T]	3.23
PRGRAHLAPNPYQQDFLGLPEELR [L8A]	3.58
PRGRAHLNPNPYQQDFLGLPEELR [L8N]	4.09
PRGRAHLHPNPYQQDFLGLPEELR [L8H]	3.86
PRGRAHLMPNPYQQDFLGLPEELR [L8M]	3.95
PRGRAHLGPNPYQQDFLGLPEELR [L8G]	3.59
PRGRAHLSPNPYQQDFLGLPEELR [L8S]	3.93
PRGRAHLVPNPYQQDFLGLPEELR [L8V]	4.02
PRGRAHLQPNPYQQDFLGLPEELR [L8Q]	4.24
PRGRAHLIPNPYQQDFLGLPEELR [L8I]	3.94
PRGRAHLEPNPYQQDFLGLPEELR [L8E]	3.96
PRGRAHLDPNPYQQDFLGLPEELR [L8D]	4.6
PRGRAHLWPNPYQQDFLGLPEELR [L8W]	2.56
PRGRAHLKPNPYQQDFLGLPEELR [L8K]	3.98
PRGRAHLCPNPYQQDFLGLPEELR [L8C]	4.14
KRGRAHLLPNPYQQDFLGLPEELR [P1K]	3.22

Variant	protein stability index
LRGRAHLLPNPYQQDFLGLPEELR [P1L]	2.64
MRGRAHLLPNPYQQDFLGLPEELR [P1M]	2.93
QRGRAHLLPNPYQQDFLGLPEELR [P1Q]	3.72
WRGRAHLLPNPYQQDFLGLPEELR [P1W]	2.92
VRGRAHLLPNPYQQDFLGLPEELR [P1V]	2.83
NRGRAHLLPNPYQQDFLGLPEELR [P1N]	3.69
TRGRAHLLPNPYQQDFLGLPEELR [P1T]	3.52
YRGRAHLLPNPYQQDFLGLPEELR [P1Y]	3.11
SRGRAHLLPNPYQQDFLGLPEELR [P1S]	3.23
RRGRAHLLPNPYQQDFLGLPEELR [P1R]	3.06
PRGRAHLLQNPYQQDFLGLPEELR [P9Q]	3.84
PRGRAHLLCNPYQQDFLGLPEELR [P9C]	2.66
PRGRAHLLENPYQQDFLGLPEELR [P9E]	3.89
PRGRAHLLLNPYQQDFLGLPEELR [P9L]	3.35
PRGRAHLLGNPYQQDFLGLPEELR [P9G]	2.77
PRGRAHLLKNPYQQDFLGLPEELR [P9K]	3.73
PRGRAHLLFNPYQQDFLGLPEELR [P9F]	2.94
PRGRAHLLSNPYQQDFLGLPEELR [P9S]	3.88
PRGRAHLLDNPYQQDFLGLPEELR [P9D]	3.79
PRGRAHLLNNPYQQDFLGLPEELR [P9N]	3.77
PRGRAHLLRNPYQQDFLGLPEELR [P9R]	3.18
PRGRAHLLVNPYQQDFLGLPEELR [P9V]	3.71
PRGRAHLLTNPYQQDFLGLPEELR [P9T]	3.61
PRGRAHLLMNPYQQDFLGLPEELR [P9M]	3.8

Variant	protein stability index
PRGRAHLLWNPYQQDFLGLPEELR [P9W]	2.53
PRGRAHLLHNPYQQDFLGLPEELR [P9H]	3.29
PRGRAHLLANPYQQDFLGLPEELR [P9A]	3.66
PRGRAHLLINPYQQDFLGLPEELR [P9I]	2.88
PRGRAHLLYNPYQQDFLGLPEELR [P9Y]	3.32
PRGRAHELPNPYQQDFLGLPEELR [L7E]	4.62
PRGRAHTLPNPYQQDFLGLPEELR [L7T]	5.36
PRGRAHDLPNPYQQDFLGLPEELR [L7D]	3.96
PRGRAHYLPNPYQQDFLGLPEELR [L7Y]	3.92
PRGRAHFLPNPYQQDFLGLPEELR [L7F]	3.84
PRGRAHPLPNPYQQDFLGLPEELR [L7P]	4.06
PRGRAHHLPNPYQQDFLGLPEELR [L7H]	3.9
PRGRAHSLPNPYQQDFLGLPEELR [L7S]	4.98
PRGRAHMLPNPYQQDFLGLPEELR [L7M]	4.18
PRGRAHWLPNPYQQDFLGLPEELR [L7W]	3.24
PRGRAHVLPNPYQQDFLGLPEELR [L7V]	4.12
PRGRAHKLPNPYQQDFLGLPEELR [L7K]	4
PRGRAHILPNPYQQDFLGLPEELR [L7I]	3.8
PRGRAHALPNPYQQDFLGLPEELR [L7A]	4.23
PRGRAHCLPNPYQQDFLGLPEELR [L7C]	3.84
PRGRAHQLPNPYQQDFLGLPEELR [L7Q]	3.86
PRGRAHRLPNPYQQDFLGLPEELR [L7R]	4.12
PRGRAHNLPNPYQQDFLGLPEELR [L7N]	4.33
PRGRAHGLPNPYQQDFLGLPEELR [L7G]	4.08

Variant	protein stability index
PRGRCHLLPNPYQQDFLGLPEELR [A5C]	2.69
PRGRDHLLPNPYQQDFLGLPEELR [A5D]	4.25
PRGRNHLLPNPYQQDFLGLPEELR [A5N]	4.1
PRGRRHLLPNPYQQDFLGLPEELR [A5R]	3.34
PRGRKHLLPNPYQQDFLGLPEELR [A5K]	3.32
PRGRLHLLPNPYQQDFLGLPEELR [A5L]	3.12
PRGRFHLLPNPYQQDFLGLPEELR [A5F]	2.69
PRGRPHLLPNPYQQDFLGLPEELR [A5P]	3.56
PRGRTHLLPNPYQQDFLGLPEELR [A5T]	4.05
PRGREHLLPNPYQQDFLGLPEELR [A5E]	3.9
PRGRYHLLPNPYQQDFLGLPEELR [A5Y]	2.98
PRGRWHLLPNPYQQDFLGLPEELR [A5W]	2.62
PRGRSHLLPNPYQQDFLGLPEELR [A5S]	4.04
PRGRMHLLPNPYQQDFLGLPEELR [A5M]	3.48
PRGRIHLLPNPYQQDFLGLPEELR [A5I]	2.96
PRGRVHLLPNPYQQDFLGLPEELR [A5V]	3.63
PRGRQHLLPNPYQQDFLGLPEELR [A5Q]	4.07
PRGRGHLLPNPYQQDFLGLPEELR [A5G]	3.63
PRGRHHLLPNPYQQDFLGLPEELR [A5H]	3.78
PRGRAHLLPNEYQQDFLGLPEELR [P11E]	4.74
PRGRAHLLPNCYQQDFLGLPEELR [P11C]	3.51
PRGRAHLLPNAYQQDFLGLPEELR [P11A]	3.41
PRGRAHLLPNGYQQDFLGLPEELR [P11G]	4.3
PRGRAHLLPNDYQQDFLGLPEELR [P11D]	4.12

Variant	protein stability index
PRGRAHLLPNFYQQDFLGLPEELR [P11F]	3.44
PVGRAHLLPNPYQQDFLGLPEELR [R2V]	3.81
PCGRAHLLPNPYQQDFLGLPEELR [R2C]	2.26
PYGRAHLLPNPYQQDFLGLPEELR [R2Y]	3.5
PTGRAHLLPNPYQQDFLGLPEELR [R2T]	4.22
PIGRAHLLPNPYQQDFLGLPEELR [R2I]	3.62
PSGRAHLLPNPYQQDFLGLPEELR [R2S]	4.15
PKGRAHLLPNPYQQDFLGLPEELR [R2K]	3.75
PDGRAHLLPNPYQQDFLGLPEELR [R2D]	3.44
PPGRAHLLPNPYQQDFLGLPEELR [R2P]	4.18
PLGRAHLLPNPYQQDFLGLPEELR [R2L]	3.76
PQGRAHLLPNPYQQDFLGLPEELR [R2Q]	4.24
PHGRAHLLPNPYQQDFLGLPEELR [R2H]	3.87
PFGRAHLLPNPYQQDFLGLPEELR [R2F]	3.31
PAGRAHLLPNPYQQDFLGLPEELR [R2A]	4.04
PWGRAHLLPNPYQQDFLGLPEELR [R2W]	3.33
PEGRAHLLPNPYQQDFLGLPEELR [R2E]	4.69
PNGRAHLLPNPYQQDFLGLPEELR [R2N]	3.46
PMGRAHLLPNPYQQDFLGLPEELR [R2M]	4.08
PGGRAHLLPNPYQQDFLGLPEELR [R2G]	4
